Measurements from publication PMC13480645 (PLOS Pathogens, 2026).
Changes are numbered by the printed parent chain.

Tests used:
[1] = biological target: T1, HCoV-HKU1 S2 stem helix peptide (Human coronavirus HKU1, isolate N1, biotin on the N-terminus); assay: BLI; conditions: both partners purified
T1 chain: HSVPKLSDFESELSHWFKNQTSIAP

[2] = biological target: T2, HCoV-HKU1 S2 stem helix peptide, biotinylated (Human coronavirus HKU1, isolate N1, biotin on the N-terminus); assay: BLI; conditions: both partners purified
T2 construct: also called HCoV-HKU1 stem helix peptide
T2 chain: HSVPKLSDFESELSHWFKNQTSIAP

[3] = biological target: T3, SARS-CoV-2 spike, full length, expressed on the cell surface (SARS-CoV-2, UniProt P0DTC2); assay: flow cytometry on cells; conditions: one partner purified
[4] = biological target: T3, SARS-CoV-2 spike, full length, …; assay: cell-based or functional assay

B1: eCC65.1-12 (antibody, V domains shown)
VH: EVQLVQSGAEVKKPGASVKVSCKASGYTFTSQYMHWVRQAPGQGLEWMGIIDPSGGGTSYAQKFRDRVSMTRDTPTSTVYMELRSLRSEDTAVYYCASLWFENPSWRDYWGQGTLVTVSS
VL: DVVMTQSPGTLSLSPGERATLSCRASQTVNKNYLAWYQQKPGQAPRLLIYHASSRATGIPDRFSGSGSGTDFTLTISRLEPEDFAVYYCQQYGASPPLFTFGPGTKLEIK
Kd [1]: 129 pM | kon [1]: 301000 M⁻¹ s⁻¹

B2: engineered CC65.1 mAb eCC65.1-12 (IgG) (antibody, V domains shown)
VH: B1 VH
VL: B1 VL
notes: copies: 2 + 2
fold increase in affinity over parental CC65.1 [2]: 6.7 fold | binding result [3]: binds

B3: CC65.1 human monoclonal antibody (IgG) (antibody, V domains shown)
VH: B1 VH
VL: B1 VL with K31S, H51R, A94S
IC50 of neutralization of SARS-CoV-2 pseudovirus (HeLa-hACE2 cells) [4]: 6.16 µg/mL
